Assay results from the DeepSol protein solubility set.

Assay: soluble on expression in E. coli; label from the status in PepcDB or PDB records

| Sequence | soluble on expression in E. coli |
| --- | --- |
| MSQFGGGKPPGQWHRPAAPGGAPQLSGFSAVNFGGVPMVGMGVPMGMVNQAAFSSQGVLGMQGIMGAVPQQSLPQQQPNFQQQNSLQQGTNMQQNSGAKNQRTFVGVVTKMLDTYGFVDDDVFFQHSVIRGSHPRVGDKVMVEANYNPSMPFKWNAYRIQLLNAATQQEPARQAPQQQQMHQPQRGGQESQRWGAAPASGTSDRADRNGGARGNDSPLHRSSAARRHSPPPRRASPPRRTSSPKRDARPAREIRDSREPREVRRSPPPRRAASPRKASSPSAPAKNDRKRERSPSGSVAPSVRRESASPPRRRARIIPRYECRAQKPALLSPIVSGSVLRHRYSKLYLPSDYVDLSFDWVRSFQLDLSLDLSNPIQFHVFNKDVDFIGEEEIQDLDPEDADHRHQVKVLLLSHAGKSEVVKKAFCLMADGTTDDHQEPQSLLKNLHFLVGARGKETMGIGGSWSPSQDGADPNSATTMIRTAVRTTKSLTGIDLSSVSQWFSMVQIRYYRADKQRIDHVNYLLPDTQSLALDDAQWMLAETKIAEQLKAKLANVDALKIEEDEPPVVMMVEESESVVAAAAAAADVVPEQSIPDVKKEEELQAEEPKVLDNVKESIVLLWAEESDVVADVSMNSTTDADNSEAPAAENGQGPTNWSNLDPKSMKVAELRVELELRGLETKGIKTLLVQRLQTALDTEKAAEASVAARDVEMRDAAENAVKQEGGEENPAAFIAPSIEETKAKTEAEAKKEAEEAEKRKKKEEQLEKEKKEKREALEKHYQLPKDKKILVFPSKSFKSGKFDCKVLSLSSLLDYRHDDNKENQFEVSLFAEAFKEMIERNAAFTIYETLANCGDRDAEKKRRDEAREKPVEPKEPKEPAETTEKAAEGEEKKDEKEEKRDEKKDEKREEKREKVERIDLKSVVANRTVYEAFSLFDSNLCGYLTEKDIEEILYNGEFGISRGQIQKLAKKLSVRDKINYRHLTDVLTDMDGNVRHTPGGADDVVETDDLIRGFGYNLAKSMEPADSGAAVKSSEVSASSDGVVIINGSAVNVVQKMKLLKQVEKERDEAKSTVSEQLSLIEQLREAKAEIDKKKKDIDSHYHKSNKKLNETSAQLKSTQDENSALKQALQDCKRHADRIFSVVEKVMPPPPKKEEKSKKDEKEKTDKKDDKVSEKSAEKSTEEPSQEVPASAEQAAEPSTEAEPIVIDESEDKDAEVVEESKE | not soluble |
| MFFQSIYQMMSAGTDLNINIRRTDGKLSVAVIPKRTTLKDEAGQAIVPLILNGTPMELDGQFLQIITTPLQKAQGILTNLETFEQQARLAATQGKAAGTANDKKTKEAREKQEKMEKLLKRAEEAFTAGRYSEATTCFRQAKVLADTDRQKQIEARIQEVQKESSQGCLFPETDTQPLPQQPPANGTANGNRPDGQMRMFTSQPPQQPVQQAIPQPVQQPVPRPQIVQPQPVPQYYPGTPQPQPMYEGYCRNPANGSPQQTAEQPQTYFLQPGGQYPQTQPWQQPQPVPLQPQATVIQTTRENTGREYQSPPQPAAEALTFDKDDESDRELLREDPYAEYIDFPQECRMKDETQAELICC | not soluble |
| GMSARDVFHEVVKTALKKDGWQITDDPLTISVGGVNLSIDLAAQKLIAAERQGQKIAVEVKSFLKQSSAISEFHTALGQFINYRGALRKVEPDRVLYLAVPLTTYKTFFQLDFPKEIIIENQVKMLVYDVEQEVIFQWIN | soluble |
| MGSDKIHHHHHHMPQDVMTANHVSPSNDAAAPSALDLARNQRLSLMDLLSVSEALNAAGQQAAAAELYKTWVAFNDNNPTIHLAYFNYAVMLNQLGDRAGAVQAFRACLKANPEFAPGHINLGRALEDAGLIGHAVEQWSHYAEVTKNVDAETIGHRHMTLQNMGRVLEGAGKLEEAETALLQAFELRPELPEAGQHWASLRQRQCKWPVLAPSNHISPRKMLDAMSSLTLSCYADDPMFQLAKAYRLSKTLIGARPDLSRFPRRSPKQKSGTGQRLRVGYLSSDLRDHAVGFALCEVLELHDKDSLEVFAYYCGNVRGTDSTQERIKAAVHCWRDIHGVDDATAASQIIADEIDILIDVNGYTKDARAKIFAYRPAPVIVSFCGYPGSMGSPFHQYLISDGYMIPPENEIYYSEKVLRIACDQPLDRKRPVAARPSRADVGLPEDAFVYASFNGMQKITENCFARWMTILSETPGSLLWLLTGDDDVNQRLRDLAEKSGVASERLVFAPKAQNPQHIARIGLADLFLDTFPYGAHSTASDAITSGLPVLTMYGKTFAARFCGSIVTAAGVPEMICSSPEDYVARAIGFERDRQSLLEVRESIARQRETSVLRDIPALARRLEELFWQMQGECERGETPVPDLSNLDIYYEAGAEALLENIEFEDEQSYRERYLKKLRQWHDYAPIPYDRRLWQNPDN | not soluble |
| MIPLEKPGSGGSSPGATSGSGRAGRGLSGPCRPPPPPQARGLLTEIRAVVRTEPFQDGYSLCPGRELGRGKFAVVRKCIKKDSGKEFAAKFMRKRRKGQDCRMEIIHEIAVLELAQDNPWVINLHEVYETASEMILVLEYAAGGEIFDQCVADREEAFKEKDVQRLMRQILEGVHFLHTRDVVHLDLKPQNILLTSESPLGDIKIVDFGLSRILKNSEELREIMGTPEYVAPEILSYDPISMATDMWSIGVLTYVMLTGISPFLGNDKQETFLNISQMNLSYSEEEFDVLSESAVDFIRTLLVKKPEDRATAEECLKHPWLTQSSIQEPSFRMEKALEEANALQEGHSVPEINSDTDKSETEESIVTEELIVVTSYTLGQCRQSEKEKMEQKAISKRFKFEEPLLQEIPGEFIY | soluble |
| MSMEDPFFVVKGEVQKAVNTAQGLFQRWTELLQGPSAATREEIDWTTNELRNNLRSIEWDLEDLDETISIVEANPRKFNLDATELSIRKAFITSTRQIVRDMKDQMSASS | soluble |
| MKITAIHLYAIRLPLRNPFVISYGSYSDMPSIIVKMETDEGIIGYGEGVADDHVTGESWESTFHTLKHTLTPALIGQNPMNIEKIHDMMDNTIYGVPTAKAAIDIACFDIMGKKLNQPVYQLIGGRYHEEFPVTHVLSIADPENMAEEAASMIQKGYQSFKMKVGTNVKEDVKRIEAVRERVGNDIAIRVDVNQGWKNSANTLTALRSLGHLNIDWIEQPVIADDIDAMAHIRSKTDLPLMIDEGLKSSREMRQIIKLEAADKVNIKLMKCGGIYPAVKLAHQAEMAGIECQVGSMVESSVASSAGFHVAFSKKIITSVELTGPLKFTKDIGNLHYDVPFIRLNEKPGLGIEINEDTLQELTVFQDIVR | soluble |
| MRAGVREVIDDSSERTLQQVIERAFLRTKGAIIRQKRVFGFVSAKGGDGGSCIAANFAFALSQEPDIHVLAVDISLPFGDLDMYLSGNTHSQDLADISNASDRLDKSLLDTMVQHISPSLDLIPSPATFEKIVNIEPERVSDLIHIAASFYDYIIVDFGASIDHVGVWVLEHLDELCIVTTPSLQSLRRAGQLLKLCKEFEKPISRIEIILNRADTNSRITSDEIEKVIGRPISKRIPQDEDAMQESLLSGQSVLKVAPKSQLSKTIVDWALHLNGVSRPNKRSIWERLKIK | not soluble |
| MTNEKGLDKGYELVAKMHEVFGHPVTNTPTKLTEERAKIRASFMQEELEEFLEATTVEDQYDALIDLIYFAFGTFAEMGVRPDKGFEIVNNANMAKLFPDGKPRFREGDGKILKPEGWQAPEPQLRAEIERQRQEAEKNC | soluble |
| MPNKISGSIAPSASSDAMKSADCAENIKEEVVSKHVHQAVPAELADLPSRQPPRSKTALYQVIQKFRDPLPLPPPPTSHPVLAYDRDLGSSDNFRSSDEFDLPESLNPTGWKNLHVSGSGSIASIGQITRLRPSKERPVVVLDAREESHAIVGGYPGTWRTPNNWGNAGKSRDEALADEQQRIQALKSQETVHIFHRKDVKSEARNPRGATLSKPLIFSEEELVRAAGAKYVRLTVTDHLSPRADDIDAFIAMEREMAHDERLHVHCGMGLGRTTIFIVMHDILRNAAMLSFDDIIERQRKFNPGRSLDNNKDVSDKGRSEFRNERSEFLPLFYEYAKQNPKGQPLLWSEWLDHNA | not soluble |
| MVHYKLTYFNGRGAGECARQVFALADQKYEDVRLTQETFVPLKATFPFGQVPVLEVDGQQLAQSQAICRYLAKTFGFAGATPFESALIDSLADAYTDYRAEMKTYYYTALGFMTGDVDKPKTDVLLPARTKFLGFITKFLKKNSSGFLVGDKISWVDLLVAEHVADMTNRVPEYIEGFPEVKAHMERIQQTPRIKKWIETRPETPF | soluble |
